Assay results: publication PMC6995573 (2019)
Like-named read-outs stand apart in the source and are kept apart here.

T1: Human ornithine decarboxylase (human, UniProt P11926 2-421)
T1 chain: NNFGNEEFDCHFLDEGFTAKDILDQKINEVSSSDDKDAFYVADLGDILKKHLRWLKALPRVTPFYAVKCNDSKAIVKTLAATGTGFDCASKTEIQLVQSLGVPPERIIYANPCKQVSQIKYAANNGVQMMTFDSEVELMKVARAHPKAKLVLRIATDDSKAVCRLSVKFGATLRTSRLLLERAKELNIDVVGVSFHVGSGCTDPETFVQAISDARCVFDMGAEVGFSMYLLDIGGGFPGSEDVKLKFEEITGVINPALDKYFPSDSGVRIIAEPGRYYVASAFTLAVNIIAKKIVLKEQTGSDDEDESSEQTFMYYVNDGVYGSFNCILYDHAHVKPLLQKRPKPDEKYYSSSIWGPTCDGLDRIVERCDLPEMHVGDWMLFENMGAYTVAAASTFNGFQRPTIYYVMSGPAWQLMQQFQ

B1: AZ_(95–228)_R114A (domain or fragment)
chain: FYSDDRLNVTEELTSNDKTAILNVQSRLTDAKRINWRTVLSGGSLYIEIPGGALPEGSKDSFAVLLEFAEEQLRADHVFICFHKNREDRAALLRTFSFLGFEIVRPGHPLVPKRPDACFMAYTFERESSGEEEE
B2: AZ_(95–228)_E105A (domain or fragment)
chain: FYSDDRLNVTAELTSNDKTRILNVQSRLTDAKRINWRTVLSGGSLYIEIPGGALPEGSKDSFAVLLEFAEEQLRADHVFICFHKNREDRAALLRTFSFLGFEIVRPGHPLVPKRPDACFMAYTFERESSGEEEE
B3: AZ_(95–228)_E106A (domain or fragment)
chain: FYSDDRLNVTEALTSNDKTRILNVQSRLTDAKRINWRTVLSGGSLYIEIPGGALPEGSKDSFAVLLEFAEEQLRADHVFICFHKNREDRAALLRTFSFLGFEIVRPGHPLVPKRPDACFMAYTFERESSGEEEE
B4: AZ_(95–228)_R100A (domain or fragment)
chain: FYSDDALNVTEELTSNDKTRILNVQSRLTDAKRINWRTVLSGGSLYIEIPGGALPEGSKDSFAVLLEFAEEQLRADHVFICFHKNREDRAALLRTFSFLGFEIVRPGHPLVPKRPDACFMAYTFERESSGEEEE
B5: AZ_(95–228)_D99A (domain or fragment)
chain: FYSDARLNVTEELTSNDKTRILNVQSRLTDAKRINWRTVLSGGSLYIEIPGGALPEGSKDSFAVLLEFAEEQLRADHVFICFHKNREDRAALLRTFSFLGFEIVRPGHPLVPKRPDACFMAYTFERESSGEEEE
B6: AZ_(95–228)_D98A (domain or fragment)
chain: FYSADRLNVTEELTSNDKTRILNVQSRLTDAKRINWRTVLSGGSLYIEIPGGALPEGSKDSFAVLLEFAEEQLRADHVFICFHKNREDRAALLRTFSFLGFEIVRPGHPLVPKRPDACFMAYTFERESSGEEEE
B7: AZ_(95–228)_R121A (domain or fragment)
chain: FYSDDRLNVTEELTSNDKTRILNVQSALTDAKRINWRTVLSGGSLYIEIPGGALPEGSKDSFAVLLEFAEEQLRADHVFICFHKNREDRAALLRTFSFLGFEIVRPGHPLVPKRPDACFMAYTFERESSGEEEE
B8: AZ_(95–228)_D111A (domain or fragment)
chain: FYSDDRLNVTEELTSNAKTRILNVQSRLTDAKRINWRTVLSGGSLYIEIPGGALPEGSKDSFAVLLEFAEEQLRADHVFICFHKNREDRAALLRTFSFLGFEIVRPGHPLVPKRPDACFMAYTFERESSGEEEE
B9: AZ2 (natural protein)
chain: MINTQDSSILPLSNCPQLQCCRHIVPGPLWCSDAPHPLSKIPGGRGGGRDPSLSALIYKDEKLTVTQDLPVNDGKPHIVHFQYEVTEVKVSSWDAVLSSQSLFVEIPDGLLADGSKEGLLALLEFAEEKMKVNYVFICFRKGREDRAPLLKTFSFLGFEIVRPGHPCVPSRPDVMFMVYPLDQNLSDED
B10: AZ3_WT (natural protein)
chain: MPCKRCRPSVYSLSYIKRGKTRNYLYPIWSPYAYYLYCYKYRITLREKMLPRCYKSITYKEEEDLTLQPRSCLQCSESLVGLQEGKSTEQGNHDQLKELYSAGNLTVLATDPLLHQDPVQLDFHFRLTSQTSAHWHGLLCDRRLFLDIPYQALDQGNRESLTATLEYVEEKTNVDSVFVNFQNDRNDRGALLRAFSYMGFEVVRPDHPALPPLDNVIFMVYPLERDVGHLPSEPP
B11: AZ_(95–228)_D124A (domain or fragment)
chain: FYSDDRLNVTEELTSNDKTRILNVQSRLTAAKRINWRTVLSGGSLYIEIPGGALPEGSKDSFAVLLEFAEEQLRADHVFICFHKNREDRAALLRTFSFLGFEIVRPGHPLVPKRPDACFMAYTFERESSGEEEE

What was measured:
[1] = biological target: T1, Human ornithine decarboxylase; experiment: inhibition of ODC enzyme activity
[2] = biological target: T1, Human ornithine decarboxylase; experiment: AUC
[3] = biological target: T1, Human ornithine decarboxylase; experiment: inhibition of ODC enzyme activity

| Binder | IC50 [1] [nM] | Kd [2] [nM] | IC50 [3] [nM] |
| --- | --- | --- | --- |
| B1 | 160 | – | – |
| B2 | 190 | – | – |
| B3 | 200 | – | – |
| B4 | 190 | – | – |
| B5 | 170 | – | – |
| B6 | 180 | – | – |
| B7 | 160 | – | – |
| B8 | 190 | – | – |
| B9 | – | 280 | 190 |
| B10 | – | 590 | 840 |
| B11 | 170 | – | – |
